# Test results reported in patent US12031137B2, “Compositions comprising SASP modulators and senescence attenuators and uses thereof for modulating cellular senescence” (RSEM, LIMITED PARTNERSHIP, priority 2016, dated 2024).
# Substitutions are numbered along the chain they refer to. Names and notes keep the numbering of the source.
# T1: human VEGF165 (Homo sapiens, UniProt P15692)
# T1 construct: made in house; host or cells: HEK293T
# T1 sequence (P15692 27-191 isoform P15692-4): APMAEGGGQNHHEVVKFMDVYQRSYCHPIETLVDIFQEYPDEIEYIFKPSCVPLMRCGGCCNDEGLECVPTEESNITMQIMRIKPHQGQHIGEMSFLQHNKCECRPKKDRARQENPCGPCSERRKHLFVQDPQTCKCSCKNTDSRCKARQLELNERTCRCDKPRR
# B1: Trap AR: NRP1 trap a2b1, aa about 22-26 and 143-424; SEQ ID NOs 63/64 (protein)
# chain: MERGLPLLCAVLALVLAPAGAFRNDKRGPECSQNYTTPSGVIKSPGFPEKYPNSLECTYIVFAPKMSEIILEFESFDLEPDSNPPGGMFCRYDRLEIWDGFPDVGPHIGRYCGQKTPGRIRSSSGILSMVFYTDSAIAKEGFSANYSVLQSSVSEDFKCMEALGMESGEIHSDQITASSQYSTNWSAERSRLNYPENGWTPGEDSYREWIQVDLGLLRFVTAVGTQGAISKETKKKYYVKTYKIDVSSNGEDWITIKEGNKPVLFQGNTNPTDVVVAVFPKPLITRFVRIKPATWETGISMRFEVYGCRSGSKENLYFQG
# B2: Trap AD: NRP1 trap a1a2b1, aa about 22-424 and 561-583, D320K; SEQ ID NOs 51/52 (protein)
# chain: MERGLPLLCAVLALVLAPAGAFRNDKCGDTIKIESPGYLTSPGYPHSYHPSEKCEWLIQAPDPYQRIMINFNPHFDLEDRDCKYDYVEVFDGENENGHFRGKFCGKIAPPPVVSSGPFLFIKFVSDYETHGAGFSIRYELFKRGPECSQNYTTPSGVIKSPGFPEKYPNSLECTYIVFAPKMSEIILEFESFDLEPDSNPPGGMFCRYDRLEIWDGFPDVGPHIGRYCGQKTPGRIRSSSGILSMVFYTDSAIAKEGFSANYSVLQSSVSEDFKCMEALGMESGEIHSDQITASSQYSTNWSAERSRLNYPENGWTPGEKSYREWIQVDLGLLRFVTAVGTQGAISKETKKKYYVKTYKIDVSSNGEDWITIKEGNKPVLFQGNTNPTDVVVAVFPKPLITRFVRIKPATWETGISMRFEVYGCRSGSKENLYFQG
# B3: Trap AK: NRP1 trap a2b1b2, aa about 22-26 and 143-583; SEQ ID NOs 61/62 (protein)
# chain: MERGLPLLCAVLALVLAPAGAFRNDKRGPECSQNYTTPSGVIKSPGFPEKYPNSLECTYIVFAPKMSEIILEFESFDLEPDSNPPGGMFCRYDRLEIWDGFPDVGPHIGRYCGQKTPGRIRSSSGILSMVFYTDSAIAKEGFSANYSVLQSSVSEDFKCMEALGMESGEIHSDQITASSQYSTNWSAERSRLNYPENGWTPGEDSYREWIQVDLGLLRFVTAVGTQGAISKETKKKYYVKTYKIDVSSNGEDWITIKEGNKPVLFQGNTNPTDVVVAVFPKPLITRFVRIKPATWETGISMRFEVYGCKITDYPCSGMLGMVSGLISDSQITSSNQGDRNWMPENIRLVTSRSGWALPPAPHSYINEWLQIDLGEEKIVRGIIIQGGKHRENKVFMRKFKIGYSNNGSDWKMIMDDSKRKAKSFEGNNNYDTPELRTFPALSTRFIRIYPERATHGGLGLRMELLGCRSGSKENLYFQG
# B4: Trap AJ: NRP1 trap a2b1b2c, aa about 22-26, 143-630 and 701-856; SEQ ID NOs 59/60 (protein)
# chain: MERGLPLLCAVLALVLAPAGAFRNDKRGPECSQNYTTPSGVIKSPGFPEKYPNSLECTYIVFAPKMSEIILEFESFDLEPDSNPPGGMFCRYDRLEIWDGFPDVGPHIGRYCGQKTPGRIRSSSGILSMVFYTDSAIAKEGFSANYSVLQSSVSEDFKCMEALGMESGEIHSDQITASSQYSTNWSAERSRLNYPENGWTPGEDSYREWIQVDLGLLRFVTAVGTQGAISKETKKKYYVKTYKIDVSSNGEDWITIKEGNKPVLFQGNTNPTDVVVAVFPKPLITRFVRIKPATWETGISMRFEVYGCKITDYPCSGMLGMVSGLISDSQITSSNQGDRNWMPENIRLVTSRSGWALPPAPHSYINEWLQIDLGEEKIVRGIIIQGGKHRENKVFMRKFKIGYSNNGSDWKMIMDDSKRKAKSFEGNNNYDTPELRTFPALSTRFIRIYPERATHGGLGLRMELLGCEVEAPTAGPTTPNGNLVDECDDDQANCHSGTGDDFQLTGGTTVLATEKPTVIDSTIQSEFPTYGFNCEFGWGSHKTFCHWEHDNHVQLKWSVLTSKTGPIQDHTGDGNFIYSQADENQKGKVARLVSPVVYSQNSAHCMTFWYHMSGSHVGTLRVKLRYQKPEEYDQLVWMAIGHQGDHWKEGRVLLHKSLKLYQVIFEGEIGKGNLGGIAVDDISINNHISQEDCAKPADLDKKNPEIKIDETGSTPGYEGEGEGDKNISRKPGNVLKTLDPRSGSKENLYFQG
# B5: Trap N: NRP1 trap a1a2, aa about 22-265; SEQ ID NOs 85/86 (protein)
# chain: FRNDKCGDTIKIESPGYLTSPGYPHSYHPSEKCEWLIQAPDPYQRIMINFNPHFDLEDRDCKYDYVEVFDGENENGHFRGKFCGKIAPPPVVSSGPFLFIKFVSDYETHGAGFSIRYELFKRGPECSQNYTTPSGVIKSPGFPEKYPNSLECTYIVFAPKMSEIILEFESFDLEPDSNPPGGMFCRYDRLEIWDGFPDVGPHIGRYCGQKTPGRIRSSSGILSMVFYTDSAIAKEGFSANYSVLRSGSKENLYFQG
# B6: Trap Z: NRP1 trap a1a2-b1b2-c, aa about 22-856, E319K, D320K; SEQ ID NOs 71/72 (protein)
# chain: FRNDKCGDTIKIESPGYLTSPGYPHSYHPSEKCEWLIQAPDPYQRIMINFNPHFDLEDRDCKYDYVEVFDGENENGHFRGKFCGKIAPPPVVSSGPFLFIKFVSDYETHGAGFSIRYELFKRGPECSQNYTTPSGVIKSPGFPEKYPNSLECTYIVFAPKMSEIILEFESFDLEPDSNPPGGMFCRYDRLEIWDGFPDVGPHIGRYCGQKTPGRIRSSSGILSMVFYTDSAIAKEGFSANYSVLQSSVSEDFKCMEALGMESGEIHSDQITASSQYSTNWSAERSRLNYPENGWTPGKKSYREWIQVDLGLLRFVTAVGTQGAISKETKKKYYVKTYKIDVSSNGEDWITIKEGNKPVLFQGNTNPTDVVVAVFPKPLITRFVRIKPATWETGISMRFEVYGCKITDYPCSGMLGMVSGLISDSQITSSNQGDRNWMPENIRLVTSRSGWALPPAPHSYINEWLQIDLGEEKIVRGIIIQGGKHRENKVFMRKFKIGYSNNGSDWKMIMDDSKRKAKSFEGNNNYDTPELRTFPALSTRFIRIYPERATHGGLGLRMELLGCEVEAPTAGPTTPNGNLVDECDDDQANCHSGTGDDFQLTGGTTVLATEKPTVIDSTIQSEFPTYGFNCEFGWGSHKTFCHWEHDNHVQLKWSVLTSKTGPIQDHTGDGNFIYSQADENQKGKVARLVSPVVYSQNSAHCMTFWYHMSGSHVGTLRVKLRYQKPEEYDQLVWMAIGHQGDHWKEGRVLLHKSLKLYQVIFEGEIGKGNLGGIAVDDISINNHISQEDCAKPADLDKKNPEIKIDETGSTPGYEGEGEGDKNISRKPGNVLKTLDPRSGSKENLYFQG
# B7: Trap AC: NRP1 trap a1a2-b1b2-c, aa about 22-856, D320K; SEQ ID NOs 75/76 (protein)
# chain: B6 chain with K298E
# B8: Trap AB: NRP1 trap a1a2-b1b2-c, aa about 22-856, E348K, S346A; SEQ ID NOs 73/74 (protein)
# chain: B6 chain with K298E, K299D, S325A, E327K
# B9: Trap AS: NRP1 trap a2b1c, aa about 22-26, 143-430 and 584-856; SEQ ID NOs 65/66 (protein)
# chain: MERGLPLLCAVLALVLAPAGAFRNDKRGPECSQNYTTPSGVIKSPGFPEKYPNSLECTYIVFAPKMSEIILEFESFDLEPDSNPPGGMFCRYDRLEIWDGFPDVGPHIGRYCGQKTPGRIRSSSGILSMVFYTDSAIAKEGFSANYSVLQSSVSEDFKCMEALGMESGEIHSDQITASSQYSTNWSAERSRLNYPENGWTPGEDSYREWIQVDLGLLRFVTAVGTQGAISKETKKKYYVKTYKIDVSSNGEDWITIKEGNKPVLFQGNTNPTDVVVAVFPKPLITRFVRIKPATWETGISMRFEVYGCKITDYPEVEAPTAGPTTPNGNLVDECDDDQANCHSGTGDDFQLTGGTTVLATEKPTVIDSTIQSEFPTYGFNCEFGWGSHKTFCHWEHDNHVQLKWSVLTSKTGPIQDHTGDGNFIYSQADENQKGKVARLVSPVVYSQNSAHCMTFWYHMSGSHVGTLRVKLRYQKPEEYDQLVWMAIGHQGDHWKEGRVLLHKSLKLYQVIFEGEIGKGNLGGIAVDDISINNHISQEDCAKPADLDKKNPEIKIDETGSTPGYEGEGEGDKNISRKPGNVLKTLDPRSGSKENLYFQG
# Key:
# [1] = tested on: SEMA3A-FC; assay: Sema 3A binding assay on plate-coated purified traps (saturation curves, KD); details: for Binding to SEMA3A: Table 2, Yes/No; for Kd: read-out: SEMA 3A-FC binding (dissociation constant)
# Experimental: (§1) Sema 3A and AP-VEGF165 binding assays. Saturation curves for the determinations of KD of binding to SEMA 3A or VEGF165 were obtained as follow. Wells of high protein binding 96 well plates (Maxisorp, Nunc) were coated with purified traps diluted in PBS and blocked afterward with binding buffer (PBS containing 2% casein and 0.05% Tween 20). The SEMA3A-FC (R&D systems) or AP-VEGF165 ligands were diluted in binding buffer over an extensive range of concentrations and added to wells. Following an overnight incubation, wells were washed with PBS containing 0.05% tween. Bound SEMA3a-FC was detected using an HRP-linked anti-Human IgG (Biorad) and ECL substrate (Pierce). Alternatively, bound AP-VEGF165 was detected using CPD star substrate (Roche). The Chemiluminescent signal was acquired on a TECAN reader. Dissociation constant (KD) were determined by non-linear curve fitting using the Graph Pad prism software.
# (§2) The relative affinity of traps of the present invention to SEMA3A and VEGF has been assessed. Traps were prepared as described in Example 8.
# [2] = target: T1, human VEGF165; assay: AP-VEGF165 binding assay on plate-coated purified traps (saturation curves, KD); details: AP-VEGF165 ligand; for Kd: read-out: VEGF165 binding (dissociation constant)
# Experimental: Production of AP-VEGF165. the coding sequence of the human VEGF165 variant 1 (NM_001025366) was sub-cloned in the pAPtag5 vector (GenHunter), in-frame with an Alkaline Phosphatase domain (AP-VEGF165). HEK293T cells were transfected with the AP-VEGF165 construct using a polyethylenimine (PEI) transfection method. Following the overnight transfection step, cells were cultured for an additional 60 hr in serum free media (In vitrogen). The cell media were collected and concentrated on a PES device (Pierce). The concentrated AP-VEGF165 ligand was analysed on PAGE-SDS and quantified using SimplyBlue safe stain (Life technologies).
# as §1, §2
# [3] = traps coated on plate, overnight incubation
molecule,measurement,setting,value
"Trap W: NRP1 trap a1a2-b1-c (in part), aa about 22-430 and 584-795; SEQ ID NOs 87/88",Binding to SEMA3A,[1],Yes
same,Kd,[1]; [3],1.14 nM
same,Kd,[2],20.7 nM
"Trap S: NRP1 trap a1a2-b1-c, aa about 22-430 and 584-856; SEQ ID NOs 93/94",Binding to SEMA3A,[1],Yes
same,Kd,[2],24.6 nM
B1,Binding to SEMA3A,[1],Yes
B2,Binding to SEMA3A,[1],No
same,SEMA 3A-FC binding (dissociation constant),[1]; [3],No binding
same,VEGF165 binding (dissociation constant),[2],No binding
B3,Binding to SEMA3A,[1],Yes
B4,Binding to SEMA3A,[1],Yes
B5,Binding to SEMA3A,[1],No
same,Kd,[1]; [3],> 1000 nM
same,Kd,[2],> 250 nM
B6,Binding to SEMA3A,[1],Yes
same,Kd,[2],67 nM
B7,Binding to SEMA3A,[1],Yes
same,Kd,[1]; [3],4 nM
same,VEGF165 binding (dissociation constant),[2],No binding
B8,Binding to SEMA3A,[1],No
same,Kd,[2],29.5 nM
B9,Binding to SEMA3A,[1],Yes
